Reference: paper PMC7617670

Target: PabA variant aY127A (Escherichia coli) (UniProt P00903)
Assay: ITC; 250 μM PabB titrated into 25 μM PabA in the cell; 25 °C; 50 mM Tris/HCl pH 7.5, 50 mM KCl, 5 mM MgCl2; without Cho and Gln; one set of sites

For “PabB, synthase subunit of aminodeoxychorismate synthase (ADCS) from Escherichia coli, wild type (from UniProt P05041 1-453) (enzyme)”, which Kd is on record?
Its Kd is over 8 µM.
